In patent US7410949:

Columns and labels:
Test in all cases: cell-based or functional assay
[1] = target: Y1R
[2] = target: Y4R
[3] = target: T1, human NPY2 receptor (human) (UniProt P49146)
T1 sequence (looked up): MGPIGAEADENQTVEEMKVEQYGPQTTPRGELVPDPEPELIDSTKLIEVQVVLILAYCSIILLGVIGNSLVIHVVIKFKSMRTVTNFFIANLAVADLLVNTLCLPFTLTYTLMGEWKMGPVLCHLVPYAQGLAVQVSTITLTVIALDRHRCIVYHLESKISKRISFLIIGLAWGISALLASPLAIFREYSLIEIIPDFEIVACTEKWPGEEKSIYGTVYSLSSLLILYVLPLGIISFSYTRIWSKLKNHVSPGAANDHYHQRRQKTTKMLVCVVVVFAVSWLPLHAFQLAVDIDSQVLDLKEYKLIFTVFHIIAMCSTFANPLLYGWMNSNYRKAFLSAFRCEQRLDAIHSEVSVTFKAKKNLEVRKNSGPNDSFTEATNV

Sequence of Y1R (P25929 whole entry): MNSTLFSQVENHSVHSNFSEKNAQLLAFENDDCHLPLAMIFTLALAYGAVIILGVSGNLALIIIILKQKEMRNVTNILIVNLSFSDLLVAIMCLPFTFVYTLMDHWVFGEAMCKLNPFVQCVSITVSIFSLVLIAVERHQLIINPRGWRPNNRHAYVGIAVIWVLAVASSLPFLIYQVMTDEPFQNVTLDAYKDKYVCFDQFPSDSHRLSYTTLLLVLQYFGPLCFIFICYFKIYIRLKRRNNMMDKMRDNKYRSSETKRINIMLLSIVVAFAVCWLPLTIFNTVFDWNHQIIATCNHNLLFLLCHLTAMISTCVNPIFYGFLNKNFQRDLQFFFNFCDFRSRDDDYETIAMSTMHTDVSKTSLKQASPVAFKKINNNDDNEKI

Row | Substance | Y1R EC50(nM) FLIPR [1] | Y4R EC50(nM) FLIPR [2] | Y2R EC50(nM) FLIPR [3] | Y2R IC50(nM) cAMP [3]
1 | Ac-1,1-Aic-Nle-Pqa-Arg-His-Tyr-Leu-Asn-Leu-Val-Thr-Arg-Gln-Arg-Tyr-NH2 (Pk A) (peptide) | 1650 nM | > 5000 nM | 8.8 nM | 0.64 nM
2 | Ac-Acp-Nle-Pqa-Arg-His-Tyr-Leu-Asn-Leu-Val-Thr-Arg-Gln-Arg-Tyr-NH2 (peptide) | > 5000 nM | > 5000 nM | – | –
3 | Ac-Aib-Nle-Pqa-Arg-His-Tyr-Leu-Asn-Leu-Val-Thr-Arg-Gln-Arg-Tyr-NH2 (peptide) | – | > 5000 nM | – | –

The next lines start with the values.

Row | Y1R EC50(nM) FLIPR [1] | Y4R EC50(nM) FLIPR [2] | Y2R EC50(nM) FLIPR [3] | Y2R IC50(nM) cAMP [3] | Substance
4 | 2650 nM | > 5000 nM | 6 nM | 1 nM | Ac-1,1-Aic-Nle-Pqa-Arg-His-Tyr-Leu-Asn-Leu-Val-Thr-Arg-Gln-Arg-Tyr-NH2 (Pk B) (peptide)
5 | > 5000 nM | > 5000 nM | – | – | Ac-2,2-Aic-Nle-Pqa-Arg-His-Tyr-Leu-Asn-Leu-Val-Thr-Arg-Gln-Arg-Tyr-NH2 (peptide)
6 | > 5000 nM | > 5000 nM | – | – | Ac-Ach-Nle-Pqa-Arg-His-Tyr-Leu-Asn-Leu-Val-Thr-Arg-Gln-Arg-Tyr-NH2 (peptide)
